Drawing on patent US20200408770A1 (NITTO BOSEKI, published 2020), this text covers Ki-67-positive ratio for one molecule.

Assay [1] deals with T1, Ki-67 antigen (MKI67: Marker Of Proliferation Ki-67) (human, UniProt P46013 1-3256).
T1 construct: Formalin-crosslinked and possibly partly cleaved; also called K-67
Briefly: flow cytometry, formalin-fixed SKBr3 cells, thrombin treatment not done; share of nuclei above the 95 percentile of the isotype control.

The target of assay [2] is T1, Ki-67 antigen (MKI67: Marker Of …). Briefly: flow cytometry, formalin-fixed MDA-MB-231 cells, thrombin treatment not done; share of nuclei above the 95 percentile of the isotype control. A general note: Flow cytometry measures light scatter and fluorescence of single cells or particles in a stream.
Assay [3] has the same target. Briefly: flow cytometry, formalin-fixed MDA-MB-231 cells, thrombin treatment done; share of nuclei above the 95 percentile of the isotype control.
For assay [4] the target is unchanged. Briefly: flow cytometry, formalin-fixed T47D cells, thrombin treatment done; share of nuclei above the 95 percentile of the isotype control.
For assay [5] the target is unchanged. Briefly: flow cytometry, formalin-fixed SKBr3 cells, thrombin treatment done; share of nuclei above the 95 percentile of the isotype control.
The target is the same in assay [6]. Put plainly: flow cytometry, formalin-fixed T47D cells, thrombin treatment not done; share of nuclei above the 95 percentile of the isotype control.

T1 sequence (P46013 whole entry): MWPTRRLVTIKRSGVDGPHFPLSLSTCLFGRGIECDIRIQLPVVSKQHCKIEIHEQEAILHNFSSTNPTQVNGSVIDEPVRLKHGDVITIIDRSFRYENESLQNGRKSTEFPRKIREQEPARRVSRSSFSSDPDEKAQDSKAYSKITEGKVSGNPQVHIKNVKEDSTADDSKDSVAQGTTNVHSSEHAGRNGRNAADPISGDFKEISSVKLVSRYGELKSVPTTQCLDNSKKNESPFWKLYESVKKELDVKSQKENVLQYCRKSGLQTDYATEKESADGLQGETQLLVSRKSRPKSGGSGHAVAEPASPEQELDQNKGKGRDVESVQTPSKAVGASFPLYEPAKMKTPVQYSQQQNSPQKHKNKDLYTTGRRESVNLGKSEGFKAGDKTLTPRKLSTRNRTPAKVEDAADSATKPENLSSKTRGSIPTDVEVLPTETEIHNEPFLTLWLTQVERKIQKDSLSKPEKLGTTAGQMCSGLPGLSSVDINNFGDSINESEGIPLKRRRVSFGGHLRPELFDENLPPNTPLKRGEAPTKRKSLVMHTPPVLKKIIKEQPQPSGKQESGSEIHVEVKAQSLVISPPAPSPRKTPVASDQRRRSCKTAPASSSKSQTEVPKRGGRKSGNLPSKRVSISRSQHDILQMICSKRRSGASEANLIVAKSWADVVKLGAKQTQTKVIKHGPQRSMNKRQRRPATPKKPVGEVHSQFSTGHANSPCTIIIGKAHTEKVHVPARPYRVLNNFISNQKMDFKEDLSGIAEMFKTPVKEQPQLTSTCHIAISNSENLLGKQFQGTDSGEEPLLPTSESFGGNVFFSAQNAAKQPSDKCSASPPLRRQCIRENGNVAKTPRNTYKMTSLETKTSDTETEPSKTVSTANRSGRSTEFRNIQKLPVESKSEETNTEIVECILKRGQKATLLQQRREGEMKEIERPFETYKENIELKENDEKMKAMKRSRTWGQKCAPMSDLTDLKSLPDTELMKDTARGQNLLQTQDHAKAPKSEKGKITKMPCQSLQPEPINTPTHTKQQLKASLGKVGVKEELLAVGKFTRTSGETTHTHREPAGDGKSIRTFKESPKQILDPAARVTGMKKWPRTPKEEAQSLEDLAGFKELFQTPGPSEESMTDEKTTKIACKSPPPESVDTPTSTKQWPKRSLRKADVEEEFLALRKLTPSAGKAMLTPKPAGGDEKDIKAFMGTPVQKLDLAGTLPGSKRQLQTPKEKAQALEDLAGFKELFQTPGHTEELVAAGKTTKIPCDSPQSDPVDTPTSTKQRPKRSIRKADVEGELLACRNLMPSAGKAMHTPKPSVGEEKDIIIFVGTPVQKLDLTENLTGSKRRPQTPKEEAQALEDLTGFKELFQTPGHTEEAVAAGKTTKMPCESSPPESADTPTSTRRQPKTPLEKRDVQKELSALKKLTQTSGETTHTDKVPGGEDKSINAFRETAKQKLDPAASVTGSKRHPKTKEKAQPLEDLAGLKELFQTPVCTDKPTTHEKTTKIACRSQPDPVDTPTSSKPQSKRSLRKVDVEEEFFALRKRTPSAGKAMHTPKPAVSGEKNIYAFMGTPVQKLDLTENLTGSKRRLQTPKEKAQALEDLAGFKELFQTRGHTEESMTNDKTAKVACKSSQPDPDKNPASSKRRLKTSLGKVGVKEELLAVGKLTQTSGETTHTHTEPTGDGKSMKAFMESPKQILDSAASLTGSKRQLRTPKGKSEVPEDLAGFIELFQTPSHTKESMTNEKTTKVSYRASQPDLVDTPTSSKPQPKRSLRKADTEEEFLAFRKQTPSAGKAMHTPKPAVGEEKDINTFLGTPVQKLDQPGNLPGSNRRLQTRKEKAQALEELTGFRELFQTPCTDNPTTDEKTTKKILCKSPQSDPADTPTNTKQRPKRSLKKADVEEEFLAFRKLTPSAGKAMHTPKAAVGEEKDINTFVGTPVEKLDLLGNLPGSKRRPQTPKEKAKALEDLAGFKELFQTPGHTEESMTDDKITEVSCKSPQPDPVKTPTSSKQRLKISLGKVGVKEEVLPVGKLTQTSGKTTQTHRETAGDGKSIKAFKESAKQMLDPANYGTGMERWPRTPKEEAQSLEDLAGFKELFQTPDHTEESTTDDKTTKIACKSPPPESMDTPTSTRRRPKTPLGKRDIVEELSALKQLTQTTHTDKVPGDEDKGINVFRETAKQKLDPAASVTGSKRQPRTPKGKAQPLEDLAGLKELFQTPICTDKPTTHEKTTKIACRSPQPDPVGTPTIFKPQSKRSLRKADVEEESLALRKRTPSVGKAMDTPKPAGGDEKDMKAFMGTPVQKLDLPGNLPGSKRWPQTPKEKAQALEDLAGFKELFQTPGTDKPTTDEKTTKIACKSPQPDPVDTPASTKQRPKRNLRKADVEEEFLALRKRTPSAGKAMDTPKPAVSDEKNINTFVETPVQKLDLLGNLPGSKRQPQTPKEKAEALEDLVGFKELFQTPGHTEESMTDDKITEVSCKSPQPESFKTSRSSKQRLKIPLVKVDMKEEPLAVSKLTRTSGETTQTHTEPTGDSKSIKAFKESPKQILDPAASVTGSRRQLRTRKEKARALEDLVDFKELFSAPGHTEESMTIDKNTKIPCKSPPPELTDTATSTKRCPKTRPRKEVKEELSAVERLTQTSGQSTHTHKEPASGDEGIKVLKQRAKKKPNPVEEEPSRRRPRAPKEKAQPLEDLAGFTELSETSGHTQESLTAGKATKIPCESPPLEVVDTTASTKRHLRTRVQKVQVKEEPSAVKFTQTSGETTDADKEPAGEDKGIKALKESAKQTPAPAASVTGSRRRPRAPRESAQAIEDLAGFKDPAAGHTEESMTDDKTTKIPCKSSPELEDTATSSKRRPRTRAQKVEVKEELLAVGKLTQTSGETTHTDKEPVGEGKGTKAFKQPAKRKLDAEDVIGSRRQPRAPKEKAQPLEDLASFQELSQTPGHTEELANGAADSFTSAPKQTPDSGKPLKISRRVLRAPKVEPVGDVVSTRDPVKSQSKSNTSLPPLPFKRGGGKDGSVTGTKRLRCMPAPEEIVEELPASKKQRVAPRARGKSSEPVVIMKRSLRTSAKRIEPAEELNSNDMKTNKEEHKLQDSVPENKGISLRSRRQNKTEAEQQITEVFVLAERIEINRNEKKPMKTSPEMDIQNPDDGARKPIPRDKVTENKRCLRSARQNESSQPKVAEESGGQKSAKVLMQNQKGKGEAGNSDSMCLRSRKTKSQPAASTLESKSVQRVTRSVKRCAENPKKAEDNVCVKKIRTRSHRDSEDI

B1: Ki-67 antibody (Dako, clone: MIB-1, mouse monoclonal antibody) (antibody, V domains shown)
VH: EVQLQESGPGILQPSQTLSLTCSFSSYHFGDIVGWIRQPSGKGLEWLAHNWKDINDNKYNTALKSRLTISKDTSNNQVFLKIASVDTADTATYYCASYGHYDHWGQGSTLTVSS
VL: DIVMTQSPLSLPVSLGDQASISCRSSSQSVINGQSNYLEWYLQKPGQSPKLLIYLVSNRFSGVPDRFSGSGSGTDFTLKISRVEAEDLGVYYCFQSGVHWPTFGGGTKL
In the case of B1, the Ki-67-positive ratio in assay [1] came out at 6.52; in assay [2], 33.1; in assay [3], 39.9; in assay [4], 37.3; in assay [5], 19.8; in assay [6] it was 24.3.
